Data on two substances can be found in US20050221391A1, “Reagents and methods for identification of binding agents” (priority 2000, published 2005).

The target in assay [1] is tau peptide incorporating the phosphorylated threonine 231 site (tau231P), Biotin-KKVAVVR(phospho)TPPKSPSS
Briefly: estimated from other studies, method not described.

Assay [2] has as its target APP668P (APP peptide phosphorylated at threonine 668) (Homo sapiens, UniProt P05067). Briefly: ELISA binding to immobilized biotinylated APP668P phosphopeptide. Conditions: synthetic phosphopeptide. The source says: It is also possible to practice the method described above using a phosphopeptide corresponding to the sequence of APP. The sequence of one such peptide is shown below: • Biotin-VEVDAAV(phospho)TPEERHLS (SEQ ID NO. 2) In place of the TG3 antibody, a mAb specific for the phosphothreonine 668 of APP is used. The same antibody detection reagents and methods are used as described above. Examples of antibodies useful in this regard include but are not limited to GF1, GF3, GF5, GF7, GF12, GF25, and GF31. Polyclonal antibodies reactive against substantially similar phosphopeptides may also be useful.
Assays have been established in which the tau and APP phosphopeptides are biotinylated and immobilized on Neutravidin-coated 96 well ELISA plates. […] Concentrations of GF31 in the 5 nM range give a robust signal on such plates, and the binding is very sensitive to the presence of an antibody, TG3, which has a high affinity for the tau peptide (FIG. 5B). Duplicate assays are shown in FIG. 5B, illustrating the reproducibility of the assay.
On the technique in general: ELISA stands for enzyme-linked immunosorbent assay.

In assay [3] the target is tau231P (tau peptide phosphorylated at threonine 231) (Homo sapiens, UniProt P10636). Briefly: ELISA binding to immobilized biotinylated tau231P phosphopeptide. The settings on record: synthetic phosphopeptide. As for the experimental part:
To identify compounds which bind to tau peptides phosphorylated on threonine 231, a 96 well or […] ELISA plate is coated with Neuravidin in 20 mM K2HPO4/10 mM KH2PO4, 1 mM EDTA, 0.8% NaCl, 0.01% NAN3, pH 7.2, using a protein concentration of 5 micrograms per ml. All volumes in ELISA plates are 50 microliters, except for storage, where 200 microliters is added. After coating, plates are incubated with 10 mM tris base, 150 mM NaCl, pH 7.4 CIBS) containing 2% bovine serum albumin (BSA) and stored at 4 °C. Plates prepared this way are stable for several weeks.
A peptide derived from the protein tau was utilized, as shown below: • Biotin-KKVAVR(phospho)TPPKSPSS (SEQ D NO. 1) The peptide was diluted to a concentration of 0.5 micromolar in TBS containing 2% BSA, and 50 microliters per well were added followed by incubation at room temperature for one hour. Unbound peptide is washed off with TBS containing 0.5% Tween 20. […] Bound antibody is detected by incubation with a solution of goat anti-mouse Ig or goat anti-rabbit Ig coupled to horse radish peroxidase (HRP) (2 micrograms per ml in TBS containing 1% BSA) for one hour, and excess antibody is removed by washing with TBS containing 0.05% Tween 20. HRP activity is determined by addition of a substrate capable of generating a colored or fluorescent product (i.e., ABTS Substrate solution (BioRad Laboratories, Hercules, Calif.)). […]

The subject of assay [4] is non-phosphorylated tau and APP peptides. Briefly: Binding to the respective non-phosphorylated tau and APP peptides.

Entries after “also recorded” stand apart in the source; their conditions may differ.

For the substance monoclonal antibody TG3, the Kd (as a rule, the equilibrium constant for the complex coming apart) in assay [1] is 25 nM.

With “Pin1: prolyl isomerase which binds phosphorylated serine/threonine-proline bonds in proteins”, in assay [2], the “binding / recognition of APP668P phosphopeptide” value was “high affinity; also recorded: binds”. In addition, in assay [3], the “binding / recognition of tau231P phosphopeptide” value was “high affinity; also recorded: binds”. In addition, the “binding to the respective non-phosphorylated peptides” value in assay [4] is “does not bind”.
